Results published in patent US20190352420A1 (Boehringer Ingelheim, published 2019).

T1: recombinant human CD73 protein (human, UniProt P21589 27-549, limits assumed)
T1 sequence (looked up): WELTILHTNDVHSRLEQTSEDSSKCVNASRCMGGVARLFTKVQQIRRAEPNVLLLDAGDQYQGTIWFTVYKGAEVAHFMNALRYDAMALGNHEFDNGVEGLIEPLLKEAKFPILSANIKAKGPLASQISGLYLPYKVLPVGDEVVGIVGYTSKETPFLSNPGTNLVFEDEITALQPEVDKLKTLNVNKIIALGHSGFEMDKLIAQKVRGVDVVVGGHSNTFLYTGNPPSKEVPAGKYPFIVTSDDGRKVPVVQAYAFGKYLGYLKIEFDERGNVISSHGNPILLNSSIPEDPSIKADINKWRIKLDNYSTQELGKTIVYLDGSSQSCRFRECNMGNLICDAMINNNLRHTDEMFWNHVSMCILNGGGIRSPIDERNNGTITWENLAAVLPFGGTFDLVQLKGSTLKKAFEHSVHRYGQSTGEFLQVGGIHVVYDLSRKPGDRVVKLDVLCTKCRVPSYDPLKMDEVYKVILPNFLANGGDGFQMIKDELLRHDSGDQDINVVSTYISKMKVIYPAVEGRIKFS

T2: non-cell-bound CD73 (human, UniProt P21589 27-549, limits assumed)
T2 sequence (looked up): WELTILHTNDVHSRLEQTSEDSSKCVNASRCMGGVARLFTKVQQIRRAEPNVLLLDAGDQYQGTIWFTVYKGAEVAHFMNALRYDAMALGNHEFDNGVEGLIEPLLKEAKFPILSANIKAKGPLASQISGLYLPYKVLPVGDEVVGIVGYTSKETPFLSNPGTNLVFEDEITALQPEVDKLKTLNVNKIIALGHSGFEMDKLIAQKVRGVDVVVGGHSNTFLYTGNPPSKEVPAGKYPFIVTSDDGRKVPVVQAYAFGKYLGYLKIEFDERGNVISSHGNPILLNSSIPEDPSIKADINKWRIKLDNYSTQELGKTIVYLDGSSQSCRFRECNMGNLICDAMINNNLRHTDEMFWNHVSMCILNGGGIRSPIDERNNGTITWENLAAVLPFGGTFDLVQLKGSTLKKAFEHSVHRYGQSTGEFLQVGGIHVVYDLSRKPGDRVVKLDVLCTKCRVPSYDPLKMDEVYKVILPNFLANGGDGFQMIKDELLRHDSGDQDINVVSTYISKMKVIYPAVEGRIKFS

T3: cell-bound CD73 (human, UniProt P21589 27-549)
T3 sequence (looked up): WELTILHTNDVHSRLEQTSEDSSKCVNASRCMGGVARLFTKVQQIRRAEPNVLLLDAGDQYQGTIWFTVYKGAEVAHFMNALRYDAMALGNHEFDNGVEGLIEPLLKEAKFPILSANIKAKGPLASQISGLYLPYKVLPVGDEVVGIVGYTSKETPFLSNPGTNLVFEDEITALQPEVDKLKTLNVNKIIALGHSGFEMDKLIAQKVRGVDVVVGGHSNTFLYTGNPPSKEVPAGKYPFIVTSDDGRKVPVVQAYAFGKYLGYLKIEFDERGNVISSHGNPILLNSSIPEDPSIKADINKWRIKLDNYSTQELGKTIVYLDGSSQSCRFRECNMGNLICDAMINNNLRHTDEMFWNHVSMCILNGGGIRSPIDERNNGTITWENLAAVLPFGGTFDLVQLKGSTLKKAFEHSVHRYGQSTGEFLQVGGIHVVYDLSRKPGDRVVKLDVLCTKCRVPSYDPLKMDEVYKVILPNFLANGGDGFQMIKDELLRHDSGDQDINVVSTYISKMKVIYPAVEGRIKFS

T4: mouse CD73 (mouse, UniProt Q61503 29-551, limits assumed)
T4 construct: also called murine CD73
T4 sequence (looked up): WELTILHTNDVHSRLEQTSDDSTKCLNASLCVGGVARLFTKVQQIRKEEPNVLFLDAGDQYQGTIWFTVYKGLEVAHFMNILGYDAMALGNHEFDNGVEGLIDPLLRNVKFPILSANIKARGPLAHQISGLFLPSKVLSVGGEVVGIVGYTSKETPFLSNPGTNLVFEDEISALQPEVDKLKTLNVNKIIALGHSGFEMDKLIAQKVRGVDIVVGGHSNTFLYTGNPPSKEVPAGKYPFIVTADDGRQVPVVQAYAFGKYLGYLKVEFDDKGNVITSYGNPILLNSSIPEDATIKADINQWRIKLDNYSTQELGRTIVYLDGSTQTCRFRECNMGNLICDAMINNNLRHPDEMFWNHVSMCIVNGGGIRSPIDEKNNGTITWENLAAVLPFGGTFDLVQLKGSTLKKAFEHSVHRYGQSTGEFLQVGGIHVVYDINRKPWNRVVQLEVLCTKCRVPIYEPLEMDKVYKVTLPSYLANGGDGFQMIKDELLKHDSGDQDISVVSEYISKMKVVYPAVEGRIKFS

T5: human CD73-His (human, UniProt P21589 27-549)
T5 construct: extracellular domain; The SPR analyte is only called 'human CD73-His' (non-covalent dimeric antigen); also called HuCD73 His tagged; HuCD73his20170303
T5 sequence: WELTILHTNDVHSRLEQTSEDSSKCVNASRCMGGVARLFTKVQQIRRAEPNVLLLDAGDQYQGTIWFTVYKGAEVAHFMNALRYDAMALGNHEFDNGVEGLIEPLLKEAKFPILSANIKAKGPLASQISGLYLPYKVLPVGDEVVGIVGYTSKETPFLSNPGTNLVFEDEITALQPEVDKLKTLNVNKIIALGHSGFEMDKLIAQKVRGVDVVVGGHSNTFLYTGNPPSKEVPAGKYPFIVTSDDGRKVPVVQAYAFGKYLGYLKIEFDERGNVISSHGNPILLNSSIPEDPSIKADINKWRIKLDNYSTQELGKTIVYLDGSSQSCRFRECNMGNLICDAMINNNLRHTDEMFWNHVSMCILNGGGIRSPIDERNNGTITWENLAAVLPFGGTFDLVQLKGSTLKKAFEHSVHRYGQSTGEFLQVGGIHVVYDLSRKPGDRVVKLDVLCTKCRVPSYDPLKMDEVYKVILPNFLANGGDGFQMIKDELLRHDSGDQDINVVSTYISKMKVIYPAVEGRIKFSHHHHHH

B1: C1 (antibody, human IgG1, kappa, L234A L235A, V domains shown)
VH: QVQLVQSGAEVKKPGDSVKVSCKASGYTFTTYWMHWVRQAPGQGLEWMGAIYPGFSDTTYSQKFKGKVTMTRDTSTSTVYMKLSSLRSEDTAVYYCARLLDYAMDYWGQGTLVTVSS
VL: DIQMTQSPSSLSASVGDRVTITCRASQDIRSYLNWHQQKPGKAPKLLIWYTSRLHSGVPSRFSGSGSGTDYTLTISSLEPEDFATYFCQQGETLPWTFGQGTKLEIKR
notes: Humanized monoclonal antibody; also called anti-CD73 antibody C1
B2: C3 (antibody, human IgG1, kappa, L234A L235A, V domains shown)
VH: QVQLVQSGAEVKKPGDSVKVSCKASGYTFTTYWMHWVRQAPGQGLEWMGAIYPGLSDTTYSQKFKGKVTMTRDTSTSTVYMKLSSLRSEDTAVYYCARLLDYAMDYWGQGTLVTVSS
VL: DIQMTQSPSSLSASVGDRVTITCRASQDIRSYLNWHQQKPGKAPKLLIWYTSRLHSGVPSRFSGSGSGTDYTLTISSLQPEDFATYFCQQGETLPWTFGQGTKLEIKR
notes: Humanized monoclonal antibody; also called anti-CD73 antibody C3
B3: C4 (antibody, human IgG1, kappa, L234A L235A, V domains shown)
VH: QVQLVQSGAEVKKPGDSVKVSCKASGYTFTTYWMHWVRQAPGQGLEWMGAIYPGLSDTTYNQKFKGKVTMTRDTSTSTVYMKLSSLRSEDTAVYYCARLLDYAMDYWGQGTLVTVSS
VL: DIQMTQSPSSLSASVGDRVTITCRASQDIRSYLNWHQQKPGKAPKLLIWYTSRLHSGVPSRFSGSGSGTDYTLTISSLQPEDFATYFCQQGETLPWTFGQGTKLEIKR
notes: Humanized monoclonal antibody; also called C04; inventive anti-CD73 antibody C4

Legend:
[1] = target: T1, recombinant human CD73 protein; assay: cell-based or functional assay
[2] = target: T2, non-cell-bound CD73; assay: cell-based or functional assay
[3] = target: T3, cell-bound CD73; assay: cell-based or functional assay
[4] = target: T3, cell-bound CD73; assay: cell-based or functional assay; remark: listed apart in the source
[5] = target: T3, cell-bound CD73; assay: cell-based or functional assay; remark: listed apart in the source
[6] = target: T3, cell-bound CD73; assay: cell-based or functional assay; remark: listed apart in the source
[7] = target: T3, cell-bound CD73; assay: cell-based or functional assay; remark: listed apart in the source
[8] = target: T4, mouse CD73; assay: SPR, mouse CD73 compared with human CD73 (reference)
[9] = target: T5, human CD73-His; assay: SPR (ProteOn XPR36), antibody captured on Protein A/G, dimeric human CD73-His as analyte, avidity format, 1:1 Langmuir fit
Description: For the avidity format, the experiment was performed on a Bio-Rad ProteOn XPR36 instrument. Antibodies were captured via Protein A/G and the non-covalent dimeric antigens were flowed over the captured surface. The running buffer for this experiment and all dilutions were prepared in PBS-T-EDTA. The GLM sensor chip was normalized and pre-conditioned as per the manufacturer's recommendations. The sensor chip was activated with an equal mixture of EDC/s-NHS in the horizontal direction for 300 s at a flow rate of 30 μL/min and immobilized with recombinant Protein A/G (50 μg/ml in 10 mM acetate pH 4.5) in the horizontal direction for 300 s at a flow rate of 30 μL/min resulting in about 5000 RU of Protein A/G on the surface. The sensor chip was deactivated with 1M ethanolamine-HCl in the horizontal direction for 300 s at a flow rate of 30 μL/min. The sensor chip was regenerated with 18 s of 0.85% phosphoric acid at a flow rate of 100 μL/min 2 times horizontally and 2 times vertically.
About 300 RU of antibody was captured on the Protein A/G surface vertically for 60 s at a flow rate of 30 μL/min. The capture surface was stabilized by injecting PBS-T-EDTA for 60 s at a flowrate of 100 μL/min horizontally. The analyte (human CD73-His) was injected horizontally over the captured antibody for 600 s at a flow rate of 30 μL/min with a dissociation of 1200 s. The concentrations of human CD73-His were 0 nM, 3.125 nM, 6.25 nM, 12.5 nM, 25 nM and 50 nM. The surface was regenerated by injecting 0.85% phosphoric acid for 18 s at a flow rate of 100 μL/min one time horizontally and one time vertically.
The interspot (interactions with sensor surface) and blank (PBS-T-EDTA or 0 nM analyte) were subtracted from the raw data.

| Binder | IC90 of inhibition of CD73 enzymatic function (luciferase-based assay) [1] [pM] | % of max. adenosine inhibition, Colo-201 culture supernatant [2] [%] | % of max. adenosine inhibition, washed Colo-201 cells [3] [%] | CD73 surface reduction [%] on Colo201 cells, 24 h, flow cytometry [4] [%] | Max. adenosine inhibition [%] in Colo201 cells [5] [%] | IFNγ release [fold change over control], Donor A, 1 nM antibody [6] [fold] | IFNγ release [fold change over control], Donor B, 1 nM antibody [6] [fold] | IFNγ release [fold change over control], Donor C, 1 nM antibody [6] [fold] | IFNγ release [fold change over control], Donor D, 1 nM antibody [6] [fold] | IFNγ release [fold change over control], Donor E, 1 nM antibody [6] [fold] | IFNγ release [fold change over control], Donor F, 1 nM antibody [6] [fold] | CD8 T cell proliferation [% of control], Donor A, 1 nM antibody [7] [%] | CD8 T cell proliferation [% of control], Donor B, 1 nM antibody [7] [%] | CD8 T cell proliferation [% of control], Donor C, 1 nM antibody [7] [%] | CD8 T cell proliferation [% of control], Donor D, 1 nM antibody [7] [%] | CD8 T cell proliferation [% of control], Donor E, 1 nM antibody [7] [%] | CD8 T cell proliferation [% of control], Donor F, 1 nM antibody [7] [%] | fold higher binding to human CD73 than to mouse CD73 [8] [fold] | Kd [9] [pM] |
| --- | --- | --- | --- | --- | --- | --- | --- | --- | --- | --- | --- | --- | --- | --- | --- | --- | --- | --- | --- |
| B1 | 490 | 76 | 79 | 20 | 86 | 20.9 | 12 | 51.3 | 20.9 | 12.8 | 6.7 | 104 | 86.7 | 107 | 99.5 | 101 | 84.2 | 96 | 72 |
| B2 | 320 | 82 | 81 | 16 | 88 | 19.9 | 7.7 | 31.9 | 19 | 14.2 | 6.7 | 103 | 80.2 | 116 | 99.3 | 101 | 91.3 | 117 | 72 |
| B3 | 240 | 81 | 82 | 15 | 88 | 20.2 | 8.7 | 35.2 | 13.7 | 14.1 | 7.1 | 104 | 70.3 | 111 | 98.5 | 100 | 92.6 | 120 | 74 |
